Reference: US20150368333A1 (GlaxoSmithKline, published 2015)
One block for each binder: values may come before it.

Experiments:
[1] = target: T1, TNF alpha (species not given) (UniProt P01375 77-233, limits assumed); assay: cell-based or functional assay
[2] = target: T1, TNF alpha (species not stated in the …); assay: cell-based or functional assay; remark: listed apart in the source
[3] = target: T1, TNF alpha (species not stated in the …); assay: ProteOn SPR reverse format, biotinylated TNF alpha captured on neutravidin (NLC) chip, antibody as analyte, 1:1 model, apparent kinetics
[4] = target: T2, recombinant cynomolgus TNF alpha (cynomolgus, UniProt P79337 77-233); assay: Biacore T100 SPR, antibody captured on Protein A, TNF alpha as analyte, 37 C
T2 construct: also called Cyno TNFα

recombinant human TNFα [5] = target: T3, recombinant human TNFα (human, UniProt P01375 77-233); assay: as above
T3 construct: also called human TNF alpha; tumour necrosis factor alpha

[6] = target: T2, recombinant cynomolgus TNF alpha; assay: Biacore T100 SPR, antibody captured on anti-human IgG, TNF alpha as analyte, 37 C
recombinant human TNFα [7] = target: T3, recombinant human TNFα; assay: as above
mouse FcRn [8] = target: T4, mouse FcRn (mouse, UniProt Q61559 22-297; P01887 21-119, limits assumed); assay: SPR, antibody amine-coupled on GLM chip, FcRn as analyte, equilibrium model, pH 7.4
T4 construct: Construct not described; also called Mouse FcRn receptor
T4 sequence (looked up) 1: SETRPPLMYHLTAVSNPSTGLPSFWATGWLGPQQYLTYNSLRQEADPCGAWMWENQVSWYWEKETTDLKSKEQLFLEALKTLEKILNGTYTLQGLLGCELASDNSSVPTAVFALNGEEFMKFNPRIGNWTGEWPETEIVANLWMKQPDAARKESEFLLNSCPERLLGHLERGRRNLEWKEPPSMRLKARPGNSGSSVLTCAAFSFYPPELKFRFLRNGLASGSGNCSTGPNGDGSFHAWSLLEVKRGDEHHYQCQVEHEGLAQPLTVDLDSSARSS
T4 sequence (looked up) 2: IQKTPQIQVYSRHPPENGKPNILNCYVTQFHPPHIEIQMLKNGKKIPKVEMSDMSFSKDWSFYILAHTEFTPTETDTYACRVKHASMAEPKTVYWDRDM

rat FcRn [9] = target: T5, rat FcRn (rat, UniProt P13599 23-298; P07151 21-119, limits assumed); assay: as above
T5 construct: Construct not described; also called Rat FcRn receptor
T5 sequence (looked up) 1: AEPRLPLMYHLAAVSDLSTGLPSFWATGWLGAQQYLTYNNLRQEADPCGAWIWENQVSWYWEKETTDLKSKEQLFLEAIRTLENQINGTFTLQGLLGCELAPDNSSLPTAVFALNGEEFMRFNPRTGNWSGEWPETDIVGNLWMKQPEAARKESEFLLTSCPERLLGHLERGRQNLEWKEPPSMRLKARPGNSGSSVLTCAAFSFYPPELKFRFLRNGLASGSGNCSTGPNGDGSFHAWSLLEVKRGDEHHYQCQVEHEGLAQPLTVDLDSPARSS
T5 sequence (looked up) 2: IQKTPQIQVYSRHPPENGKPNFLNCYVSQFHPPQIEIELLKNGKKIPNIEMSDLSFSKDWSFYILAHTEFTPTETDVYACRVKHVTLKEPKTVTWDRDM

[10] = target: T6, recombinant cynomolgus FcRn (cynomolgus, UniProt Q8SPV9 24-297; Q8SPW0 21-119, limits assumed); assay: as above
T6 construct: Construct not described; beta-2-microglobulin not mentioned; also called cyno FcRn

recombinant human FcRn [11] = target: T7, recombinant human FcRn (human, UniProt P55899 24-297; P61769 21-119, limits assumed); assay: as above
T7 construct: also called Human FcRn receptor

mouse FcRn [12] = target: T4, mouse FcRn; assay: SPR, antibody amine-coupled on GLM chip, FcRn as analyte, equilibrium model, pH 6.0
rat FcRn [13] = target: T5, rat FcRn; assay: as above
[14] = target: T6, recombinant cynomolgus FcRn; assay: as above
recombinant human FcRn [15] = target: T7, recombinant human FcRn; assay: as above
mouse FcRn [16] = target: T4, mouse FcRn; assay: SPR, antibody amine-coupled on GLM chip, FcRn as analyte, equilibrium model, pH 6.0; pH 6.0
rat FcRn [17] = target: T5, rat FcRn; assay: as above
[18] = target: T6, recombinant cynomolgus FcRn; assay: as above
recombinant human FcRn [19] = target: T7, recombinant human FcRn; assay: as above

T2 sequence (P79337 77-233 limits assumed): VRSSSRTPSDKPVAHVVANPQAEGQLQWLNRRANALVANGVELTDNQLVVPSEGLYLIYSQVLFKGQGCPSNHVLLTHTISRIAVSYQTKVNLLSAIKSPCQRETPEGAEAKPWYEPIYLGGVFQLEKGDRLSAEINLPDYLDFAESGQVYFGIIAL
T3 sequence (P01375 77-233 limits assumed): as the sequence (P79337 77-233 limits assumed) above, with V37L, T44R, N72T, L138R counted along it
T1 sequence (P01375 77-233 limits assumed): as the sequence (P79337 77-233 limits assumed) above, with V37L, T44R, N72T, L138R counted along it

IC50, TNFα-induced IL-6 release assay (whole blood) [1]: 0.11 nM
Kd [3]: 0.015 nM
koff [3]: 3e-05 s⁻¹
kon [3]: 2.06e+06 M⁻¹ s⁻¹
Kd [4]: 0.015 nM
koff [4]: 3.51e-05 s⁻¹
kon [4]: 2.34e+06 M⁻¹ s⁻¹
Kd (recombinant human TNFα [5]): 0.0156 nM
koff (recombinant human TNFα [5]): 4.19e-05 s⁻¹
kon (recombinant human TNFα [5]): 2.68e+06 M⁻¹ s⁻¹
Kd [6]: 0.0467 nM
koff [6]: 0.000209 s⁻¹
kon [6]: 4.48e+06 M⁻¹ s⁻¹
Kd (recombinant human TNFα [7]): 0.0157 nM
koff (recombinant human TNFα [7]): 7.07e-05 s⁻¹
kon (recombinant human TNFα [7]): 4.51e+06 M⁻¹ s⁻¹
B1: BPC1500 (antibody, V domains shown)
VH: EVQLVESGGGLVQPGRSLRLSCAASGFTFDDHALHWVRQAPGKGLEWVSAITWNSGHIDYADSVEGRFTISRDNAKNSLYLQMNSLRAEDTAVYYCAKVRYLSTASSLDYWGQGTLVTVSS
VL: not shown
notes: also called CDR variant cb2-44, wild-type Fc; improved anti-TNFα antibody
IC50, L929 neutralisation assay (cell viability) [2]: 0.13 µg/mL

Kd (mouse FcRn [8]): 2160 nM
Kd (rat FcRn [9]): 4330 nM
Kd [10]: 11100 nM
Kd (recombinant human FcRn [11]): 11600 nM
Kd (mouse FcRn [12]): 53.4 nM
Kd (rat FcRn [13]): 66 nM
Kd [14]: 92.1 nM
Kd (recombinant human FcRn [15]): 98 nM
B2: BPC2604 (antibody, human IgG1, kappa)
heavy: QVTLRESGPALVKPTQTLTLTCTFSGFSLSTSGMGVSWIRQPPGKGLEWLAHIYWDDDKRYNPSLKSRLTISKDTSRNQVVLTMTNMDPVDTATYYCARRETVFYWYFDVWGRGTLVTVSSASTKGPSVFPLAPSSKSTSGGTAALGCLVKDYFPEPVTVSWNSGALTSGVHTFPAVLQSSGLYSLSSVVTVPSSSLGTQTYICNVNHKPSNTKVDKKVEPKSCDKTHTCPPCPAPELLGGPSVFLFPPKPKDTLYITREPEVTCVVVDVSHEDPEVKFNWYVDGVEVHNAKTKPREEQYNSTYRVVSVLTVLHQDWLNGKEYKCKVSNKALPAPIEKTISKAKGQPREPQVYTLPPSRDELTKNQVSLTCLVKGFYPSDIAVEWESNGQPENNYKTTPPVLDSDGSFFLYSKLTVDKSRWQQGNVFSCSVMHEALHNHYTQKSLSLSPGK
light: DIVLTQSPSSLSASVGDRVTITCKASQSVDYDGDSYMNWYQQKPGKAPKLLIYAASNLESGIPSRFSGSGSGTDFTFTISSLQPEDIATYYCQQSNEDPPTFGQGTKVEIKRTVAAPSVFIFPPSDEQLKSGTASVVCLLNNFYPREAKVQWKVDNALQSGNSQESVTEQDSKDSTYSLSSTLTLSKADYEKHKVYACEVTHQGLSSPVTKSFNRGEC
notes: also called pascolizumab-YTE; Pasco-YTE

Kd (mouse FcRn [16]): 205 nM
Kd (rat FcRn [17]): 228 nM
Kd [18]: 505 nM
Kd (recombinant human FcRn [19]): 541 nM
B3: Pascolizumab (antibody, human IgG1, kappa)
heavy: not shown
light: B2 light
notes: IgG1, unmodified Fc; also called anti-IL-4 antibody
